Laboratory results published in FireProtDB (doi:10.1016/j.jmb.2009.11.038).

B1: P7S|H8S, Q5NV88 (parent)
chain: NFMLTQPHSVSESPGKTVTISCTRSSGSIASNYVQWYQQRPGSSPTTVIYEDNQRPSGVPDRFSGSIDSSSNSASLTISGLKTEDEADYYCQSYDSSN

Variants of: B1
Conditions: Homo sapiens, pH 7.5, Fluorescence, Sodium phosphate 20mM, transition: 2, structure 2W0K, whole UniProt chain shown

Row | Variant | Tm (Thermal) [°C] | change of melting temperature, mutant - wild type (higher = more stable) (Thermal) [°C] | ddG of mutation (higher = less stable) (Thermal) [kJ/mol] | unfolding enthalpy (calorimetric) (Thermal) [kJ/mol] | unfolding free energy (Thermal) [kJ/mol] | ddG of mutation (higher = less stable) (25 °C, GdnHCl) [kJ/mol] | denaturant midpoint (higher = more stable) (25 °C, GdnHCl) [M] | unfolding free energy (25 °C, GdnHCl) [kJ/mol]
1 | P7S H8S | 43.7 | -6.2 | 5.86 | 332 | 15.9 | – | – | –
2 | H8S | 49.5 | -0.4 | 0.837 | 353 | 20.9 | 2.51 | 1.28 | 18.8
3 | H8P | 50.1 | 0.2 | 3.35 | 355 | 18.4 | – | – | –
4 | P7S | 43 | -6.9 | 6.28 | 333 | 15.5 | 10.9 | 0.84 | 10.5
